Test results published in US20040137000A1 (UNITED BIOMEDICAL, published 2004).
Like-named read-outs stand apart in the source and are kept apart here.

B1: deimmunized B4 antibody DIVHv.3/VKv.2 produced by NS0 cells (antibody, human IgG1, V domains shown)
VH: QVQLVQSGAEVKKPGASVKVSCKASGYTFTDYVIHWVKQATGQGLEWIGEIYPGSGSAYSNAKFKDRVTITADKSTNTAYMELRSLRSDDTAVYFCARRGNGTGFAYWGQGTLVTVSS
VL: DIVLTQSPASLAVSPGQRATITCKAGQSVDYDGDSYMNWYQQKPGQPPKLLIYVASNLESGIPSRFSGSGSGTDFTLTINPVEENDTATYYCQQSYKDPLTFGQGTKVEIK
notes: Human IgG1 and human kappa constant regions; NS0 cells; also called DIVHv.3/V v.2; DIVH3/VK2
B2: murine monoclonal antibody B4 (antibody, V domains shown)
VH: QVQLQQSGPELVKPGASVRMSCKASGYTFTDYVIHWVKQRTGQGLEWIGEIYPGSGSAYSNAKFKDKATLTADKSSNTAYMQLSSLTSEDSAVYFCARRGNGTGFAYWGQGTLVTVSA
VL: DIVLTQSPASLAVSLGQRATISCKAGQSVDYDGDSYMNWYQQKPGQPPKLLIYVASNLESGIPARFSGSGSGTDFTLNIHPVEEEDAATYYCQQSYKDPLTFGAGTKLELK
B3: deimmunized B4 antibody DIVHv.2/VKv.2 produced by NS0 cells (antibody, human IgG1, V domains shown)
VH: QVQLVQSGAEVKKPGASVKVSCKASGYTFTDYVIHWVRQATGQGLEWIGEIYPGSGSAYSNAKFKDRVTITADKSTNTAYMELRSLRSDDTAVYFCARRGNGTGFAYWGQGTLVTVSS
VL: DIVLTQSPASLAVSPGQRATITCKAGQSVDYDGDSYMNWYQQKPGQPPKLLIYVASNLESGIPSRFSGSGSGTDFTLTINPVEENDTATYYCQQSYKDPLTFGQGTKVEIK
notes: Human IgG1 and human kappa constant regions; NS0 cells; also called DIVHv.2/V v.2; DIVH2/VK2
B4: deimmunized B4 antibody DIVHv.4/VKv.1 produced by NS0 cells (antibody, human IgG1, V domains shown)
VH: QVQLVQSGAEVKKPGASVKVSCKASGYTFTDYVIHWVRQATGQGLEWIGEIYPGSGSAYSNSKFKDRVTITADKSTNTAYMELRSLRSDDTAVYFCARRGNGTGFAYWGQGTLVTVSS
VL: DIVLTQSPASLAVSLGQRATITCKAGQSVDYDGDSYMNWYQQKPGQPPKLLIYVASNLESGIPARFSGSGSGTDFTLNIHPVEENDAATYYCQQSYKDPLTFGQGTKLEIK
notes: Human IgG1 and human kappa constant regions; NS0 cells; also called DIVHv.4/V v.1
B5: deimmunized B4 antibody DIVHv.1/VKv.2 produced by NS0 cells (antibody, human IgG1, V domains shown)
VH: QVQLVQSGPELKKPGASVKVSCKASGYTFTDYVIHWVKQATGQGLEWIGEIYPGSGSAYSNAKFKDRVTMTADKSSNTAYMELSSLTSDDTAVYFCARRGNGTGFAYWGQGTLVTVSS
VL: DIVLTQSPASLAVSPGQRATITCKAGQSVDYDGDSYMNWYQQKPGQPPKLLIYVASNLESGIPSRFSGSGSGTDFTLTINPVEENDTATYYCQQSYKDPLTFGQGTKVEIK
B6: deimmunized B4 antibody DIVHv.2/VKv.3 produced by NS0 cells (antibody, human IgG1, V domains shown)
VH: QVQLVQSGAEVKKPGASVKVSCKASGYTFTDYVIHWVRQATGQGLEWIGEIYPGSGSAYSNAKFKDRVTITADKSTNTAYMELRSLRSDDTAVYFCARRGNGTGFAYWGQGTLVTVSS
VL: DIVLTQSPASLAVSPGQRATITCKAGQSVDYDGDSYMNWYQQKPGQPPKLLIYVASNLESGIPSRFSGSGSGTDFTLTINPVEENDTATYYCQQSYKDPLAFGPGTKVEIK
notes: Human IgG1 and human kappa constant regions; NS0 cells; also called DIVHv.2/V v.3; DIVH2/VK3
B7: deimmunized B4 antibody DIVHv.4/VKv.2 produced by NS0 cells (antibody, human IgG1, V domains shown)
VH: QVQLVQSGAEVKKPGASVKVSCKASGYTFTDYVIHWVRQATGQGLEWIGEIYPGSGSAYSNSKFKDRVTITADKSTNTAYMELRSLRSDDTAVYFCARRGNGTGFAYWGQGTLVTVSS
VL: DIVLTQSPASLAVSPGQRATITCKAGQSVDYDGDSYMNWYQQKPGQPPKLLIYVASNLESGIPSRFSGSGSGTDFTLTINPVEENDTATYYCQQSYKDPLTFGQGTKVEIK
notes: Human IgG1 and human kappa constant regions; NS0 cells; also called DIVHv.4/V v.2
B8: deimmunized B4 antibody DIVHv.3/VKv.1 produced by NS0 cells (antibody, human IgG1, V domains shown)
VH: QVQLVQSGAEVKKPGASVKVSCKASGYTFTDYVIHWVKQATGQGLEWIGEIYPGSGSAYSNAKFKDRVTITADKSTNTAYMELRSLRSDDTAVYFCARRGNGTGFAYWGQGTLVTVSS
VL: DIVLTQSPASLAVSLGQRATITCKAGQSVDYDGDSYMNWYQQKPGQPPKLLIYVASNLESGIPARFSGSGSGTDFTLNIHPVEENDAATYYCQQSYKDPLTFGQGTKLEIK
notes: Human IgG1 and human kappa constant regions; NS0 cells; also called DIVHv.3/V v.1; DIVH3/VK1
B9: deimmunized B4 antibody DIVHv.1/VKv.1 produced by NS0 cells (antibody, human IgG1, V domains shown)
VH: QVQLVQSGPELKKPGASVKVSCKASGYTFTDYVIHWVKQATGQGLEWIGEIYPGSGSAYSNAKFKDRVTMTADKSSNTAYMELSSLTSDDTAVYFCARRGNGTGFAYWGQGTLVTVSS
VL: DIVLTQSPASLAVSLGQRATITCKAGQSVDYDGDSYMNWYQQKPGQPPKLLIYVASNLESGIPARFSGSGSGTDFTLNIHPVEENDAATYYCQQSYKDPLTFGQGTKLEIK
B10: deimmunized B4 antibody DIVHv.2/VKv.1 produced by NS0 cells (antibody, human IgG1, V domains shown)
VH: QVQLVQSGAEVKKPGASVKVSCKASGYTFTDYVIHWVRQATGQGLEWIGEIYPGSGSAYSNAKFKDRVTITADKSTNTAYMELRSLRSDDTAVYFCARRGNGTGFAYWGQGTLVTVSS
VL: DIVLTQSPASLAVSLGQRATITCKAGQSVDYDGDSYMNWYQQKPGQPPKLLIYVASNLESGIPARFSGSGSGTDFTLNIHPVEENDAATYYCQQSYKDPLTFGQGTKLEIK
notes: Human IgG1 and human kappa constant regions; NS0 cells; also called DIVHv.2/V v.1; DIVH2/VK1
B11: deimmunized B4 antibody DIVHv.3/VKv.3 produced by NS0 cells (antibody, human IgG1, V domains shown)
VH: QVQLVQSGAEVKKPGASVKVSCKASGYTFTDYVIHWVKQATGQGLEWIGEIYPGSGSAYSNAKFKDRVTITADKSTNTAYMELRSLRSDDTAVYFCARRGNGTGFAYWGQGTLVTVSS
VL: DIVLTQSPASLAVSPGQRATITCKAGQSVDYDGDSYMNWYQQKPGQPPKLLIYVASNLESGIPSRFSGSGSGTDFTLTINPVEENDTATYYCQQSYKDPLAFGPGTKVEIK
notes: Human IgG1 and human kappa constant regions; NS0 cells; also called DIVHv.3/V v.3; DIVH3/VK3
B12: deimmunized B4 antibody DIVHv.1/VKv.3 produced by NS0 cells (antibody, human IgG1, V domains shown)
VH: QVQLVQSGPELKKPGASVKVSCKASGYTFTDYVIHWVKQATGQGLEWIGEIYPGSGSAYSNAKFKDRVTMTADKSSNTAYMELSSLTSDDTAVYFCARRGNGTGFAYWGQGTLVTVSS
VL: DIVLTQSPASLAVSPGQRATITCKAGQSVDYDGDSYMNWYQQKPGQPPKLLIYVASNLESGIPSRFSGSGSGTDFTLTINPVEENDTATYYCQQSYKDPLAFGPGTKVEIK

How the values were obtained:
[1] = target: T1, recombinant soluble CD4 (rsCD4) (UniProt P01730 26-396, limits assumed); test: ELISA on rsCD4
T1 construct: Bought reagent coated on ELISA plates at 0.25 µg/ml; also called solid-phase rsCD4

[2] = target: T2, CD4 on the surface of host T cells (HIV receptor complex involving CD4) (UniProt P01730 26-458, limits assumed); test: cell-based or functional assay
[3] = target: T2, CD4 on the surface of host T cells (HIV …); test: cell-based or functional assay; remark: listed apart in the source

| Binder | fold reduction in binding compared to the chimeric antibody [1] | Antibody Conc (µg/ml) at 50% Inhibition; MT-2 microplaque neutralization, HIV-1 TH036 (PBL), clade E [2] | Antibody Conc (µg/ml) at 50% Inhibition; MT-2 microplaque neutralization, HIV-1 UG029 (PBL), clade A [2] | Antibody Conc (µg/ml) at 50% Inhibition; MT-2 microplaque neutralization, HIV-1 VL135 (PBL), clade B [2] | Antibody Conc (µg/ml) at 50% Inhibition; MT-2 microplaque neutralization, HIV-1 MN (H9 cells), clade B [3] | Antibody Conc (µg/ml) at 50% Inhibition; MT-2 microplaque neutralization, HIV-1 TH036 (PBL), clade E [3] | Antibody Conc (µg/ml) at 50% Inhibition; MT-2 microplaque neutralization, HIV-1 UG029 (PBL), clade A [3] | Antibody Conc (µg/ml) at 50% Inhibition; MT-2 microplaque neutralization, HIV-1 UG046 (PBL), clade D [3] | Antibody Conc (µg/ml) at 50% Inhibition; MT-2 microplaque neutralization, HIV-1 UG266 (PBL), clade D [3] | Antibody Conc (µg/ml) at 50% Inhibition; MT-2 microplaque neutralization, HIV-1 VL135 (PBL), clade B [3] | Antibody Conc (µg/ml) at 50% Inhibition; MT-2 microplaque neutralization, HIV-1 ZIM748 (PBL), clade C [3] |
| --- | --- | --- | --- | --- | --- | --- | --- | --- | --- | --- | --- |
| B1 | < 3 fold | 0.7 µg/mL | 0.92 µg/mL | 0.35 µg/mL |  |  |  |  |  |  |  |
| B2 |  | 0.24 µg/mL | 0.28 µg/mL | 0.17 µg/mL | 14 µg/mL | 0.25 µg/mL | 0.44 µg/mL | 0.4 µg/mL | 0.4 µg/mL | 0.16 µg/mL | 0.21 µg/mL |
| B3 | < 3 fold | 0.63 µg/mL | 0.73 µg/mL | 0.23 µg/mL |  |  |  |  |  |  |  |
| B4 | < 3 fold |  |  |  | > 100 µg/mL | 0.35 µg/mL | 0.35 µg/mL | 1.1 µg/mL | 7 µg/mL | 0.26 µg/mL | 0.28 µg/mL |
| B5 |  | 0.51 µg/mL | 0.73 µg/mL | 0.24 µg/mL |  |  |  |  |  |  |  |
| B6 | 5 fold | 0.62 µg/mL | 1.2 µg/mL | 0.67 µg/mL |  |  |  |  |  |  |  |
| B7 | < 3 fold | 0.32 µg/mL | 0.48 µg/mL | 0.3 µg/mL |  |  |  |  |  |  |  |
| B8 | < 3 fold |  |  |  | > 100 µg/mL | 0.58 µg/mL | 0.63 µg/mL | 0.99 µg/mL | 2.2 µg/mL | 0.26 µg/mL | 0.42 µg/mL |
| B9 |  |  |  |  | > 100 µg/mL | 0.31 µg/mL | 0.47 µg/mL | 2.1 µg/mL | 0.82 µg/mL | 0.21 µg/mL | 0.45 µg/mL |
| B10 | < 3 fold |  |  |  | > 100 µg/mL | 0.5 µg/mL | 0.79 µg/mL | 0.98 µg/mL | 1.2 µg/mL | 0.53 µg/mL | 0.63 µg/mL |
| B11 | 5 fold | 0.44 µg/mL | 1.1 µg/mL | 0.62 µg/mL |  |  |  |  |  |  |  |
| B12 |  | 0.77 µg/mL | 1 µg/mL | 0.39 µg/mL |  |  |  |  |  |  |  |
